The labels stand for the following.
B1: cytochrome c1 subunit of the R. sphaeroides cytochrome bc1 complex (Rsbc1), his-tag at the C-terminus (natural protein, UniProt Q02760 23-285, looked up)
chain: AGGGHVEDVPFSFEGPFGTFDQHQLQRGLQVYTEVCAACHGMKFVPIRSLSEPGGPELPEDQVRAYATQFTVTDEETGEDREGKPTDHFPHSALENAADLSLMAKARAGFHGPMGTGISQLFNGIGGPEYIYSVLTGFPEEPPKCAEGHEPDGFYYNRAFQNGSVPDTCKDANGVKTTAGSWIAMPPPLMDDLVEYADGHDASVHAMAEDVSAFLMWAAEPKLMARKQAGFTAVMFLTVLSVLLYLTNKRLWAGVKGKKKTNV
B2: Rieske iron-sulfur protein subunit of the wild-type R. sphaeroides cytochrome bc1 complex (Rsbc1) (natural protein)
chain: GTRRDFLYYATAGAGAVATGAAVWPLINQMNPSADVQALASIFVDVSSVEPGVQLTVKFLGKPIFIRRRTEADIELGRSVQLGQLVDTNARNANIDAGAEATDQNRTLDEAGEWLVMWGVCTHLGCVPIGGVSGDFGGWFCPCHGSHYDSAGRIRKGPAPENLPIPLAKFIDETTIQLG
B3: cytochrome b S287R, subunit of the double mutant S287R(cyt b)/V135S(ISP) Rsbc1 (natural protein, R. sphaeroides, UniProt Q02761 1-445, looked up)
chain: MSGIPHDHYEPRTGIEKWLHSRLPIVALAYDTIMIPTPRNLNWMWIWGVVLAFCLVLQIVTGIVLAMHYTPHVDLAFASVEHIMRNVNGGFMLRYLHANGASLFFIAVYLHIFRGLYYGSYKAPREVTWIVGMLIYLAMMATAFMGYVLPWGQMSFWGATVITGLFGAIPGIGHSIQTWLLGGPAVDNATLNRFFSLHYLLPFVIAALVAIHIWAFHSTGNNNPTGVEVRRTSKAEAQKDTVPFWPYFIIKDVFALAVVLLVFFAIVGFMPNYLGHPDNYIEANPLRTPAHIVPEWYFLPFYAILRAFTADVWVVQIANFISFGIIDAKFFGVLAMFGAILVMALVPWLDTSPVRSGRYRPMFKIYFWLLAADFVILTWVGAQQTTFPYDWISLIASAYWFAYFLVILPILGAIEKPVAPPATIEEDFNAHYSPATGGTKTVVAE
B4: cytochrome b subunit of the wild-type R. sphaeroides cytochrome bc1 complex (Rsbc1) (natural protein)
chain: GIPHDHYEPRTGIEKWLHSRLPIVALAYDTIMIPTPRNLNWMWIWGVVLAFCLVLQIVTGIVLAMHYTPHVDLAFASVEHIMRNVNGGFMLRYLHANGASLFFIAVYLHIFRGLYYGSYKAPREVTWIVGMLIYLAMMATAFMGYVLPWGQMSFWGATVITGLFGAIPGIGHSIQTWLLGGPAVDNATLNRFFSLHYLLPFVIAALVAIHIWAFHSTGNNNPTGVEVRRTSKAEAQKDTVPFWPYFIIKDVFALAVVLLVFFAIVGFMPNYLGHPDNYIEANPLSTPAHIVPEWYFLPFYAILRAFTADVWVVQIANFISFGIIDAKFFGVLAMFGAILVMALVPWLDTSPVRSGRYRPMFKIYFWLLAADFVILTWVGAQQTTFPYDWISLIASAYWFAYFLVILPILGAIEKPVAPPATIEEDFNA
B5: Rieske iron-sulfur protein V135S, subunit of the double mutant S287R(cyt b)/V135S(ISP) Rsbc1 (natural protein, R. sphaeroides, UniProt Q02762 1-187, looked up)
chain: MSNAEDHAGTRRDFLYYATAGAGAVATGAAVWPLINQMNPSADVQALASIFVDVSSVEPGVQLTVKFLGKPIFIRRRTEADIELGRSVQLGQLVDTNARNANIDAGAEATDQNRTLDEAGEWLVMWGVCTHLGCSPIGGVSGDFGGWFCPCHGSHYDSAGRIRKGPAPENLPIPLAKFIDETTIQLG

In data set [1] the target is B4. Kind of data set: SEC. (SEC sorts molecules by how far they enter the pores of the column.)
Data set [2] concerns the target B3. Kind of data set: crystal structure.
For data set [3], the target named is B4. Kind of data set: crystal structure.
Data set [4] concerns the molecule itself. Kind of data set: crystal structure.
Data set [5] deals with the molecule itself. Kind of data set: crystal structure. This is another data set of the same source.

In the case of B1, the binding result in data set [1] and in data set [2] was “binds” each time.
Turning to B2, the binding result in data set [3] is “binds”.
For the molecule B3, the “stoichiometry N” value in “crystal structure [4]” turned out to be 2.
As to B4, in the data set “crystal structure [5]”, the binding result is on record as “binds”.
As for B5, in data set [2], the binding result is on record as “binds”.

Broadly, the stoichiometry N is a count of units in the complex or per binding partner.
